Data published in patent US20200024330A1.

Tests used:
Test in all cases: cell-based or functional assay
[1] = target: HIV-1 92TH021 Env (on pseudovirus) (HIV-1)
[2] = target: HIV-1 JRFL Env (on pseudovirus) (HIV-1)
[3] = target: HIV-1 APV13 Env (on pseudovirus) (HIV-1)
[4] = target: HIV-1 MGRM-D-018 Env (on pseudovirus) (HIV-1)
[5] = target: aMLV envelope protein (on pseudovirus, negative control) (aMLV)
[6] = target: HIV-1 NL43 Env (on pseudovirus) (HIV-1)
[7] = target: HIV-1 CMU02 Env (on pseudovirus) (HIV-1)
[8] = target: HIV-1 MGRM-AG-005 Env (on pseudovirus) (HIV-1)
[9] = target: HIV-1 JRCSF Env (on pseudovirus) (HIV-1) (UniProt P20871)
[10] = target: HIV-1 92UG005 Env (on pseudovirus) (HIV-1)
[11] = target: HIV-1 92UG024 Env (on pseudovirus) (HIV-1)
[12] = target: HIV-1 MGRM-C-027 Env (on pseudovirus) (HIV-1)
[13] = target: HIV-1 MGRM-C-026 Env (on pseudovirus) (HIV-1)
[14] = target: HIV-1 APV6 Env (on pseudovirus) (HIV-1)
[15] = target: panel of HIV-1 pseudoviruses of Table 52
[16] = target: HIV-1 94UG103 Env (on pseudovirus) (HIV-1)
[17] = target: HIV-1 93IN905 Env (on pseudovirus) (HIV-1)
[18] = target: HIV-1 MGRM-D-001 Env (on pseudovirus) (HIV-1)
[19] = target: HIV-1 APV17 Env (on pseudovirus) (HIV-1)
[20] = target: HIV-1 93UG077 Env (on pseudovirus) (HIV-1)
[21] = target: HIV-1 MGRM-C-028 Env (on pseudovirus) (HIV-1)
[22] = target: HIV-1 MGRM-A-010 Env (on pseudovirus) (HIV-1)
[23] = target: HIV-1 Env of isolate 92BR020 (HIV-1)
[24] = target: HIV-1 Env of isolate JR-CSF (HIV-1) (UniProt P20871)
[25] = target: HIV-1 Env of isolate 94UG103 (HIV-1)
[26] = target: HIV-1 Env of isolate MGRM-C-026 (HIV-1)

B1: PGT-136 (5329_C19; 5366_P21) (antibody, V domains shown)
VH: QLQLQESGPGLVKPSETLSLTCTVSGGSMRGTDWGENDFHYGWIRQSSAKGLEWIGSIHWRGRTTHYKTSFRSRATLSIDTSNNRFSLTFSFVTAADTAVYYCARHKYHDIFRVVPVAGWFDPWGQGLLVTVSS
VL: EIVMTQSPPTLSVSPGETATLSCRASQNVKNNLAWYQLKPGQAPRLLIFDASSRAGGIPDRFSGSGYGTDFTLTVNSVQSEDFGDYFCQQYEEWPRTFGQGTKVDIK
Q: Which IC50 (ug/ml), pseudovirus neutralization [1] does the source give for B1 here?
A: > 10 µg/mL

Q: And the IC50 (ug/ml), pseudovirus neutralization [2]?
A: > 10 µg/mL

Q: And the IC50 (ug/ml), pseudovirus neutralization [3]?
A: > 10 µg/mL

Q: What about the IC50 (ug/ml), pseudovirus neutralization [4] of the same binder?
A: > 10 µg/mL

Q: And the IC50 (ug/ml), pseudovirus neutralization [5]?
A: > 10 µg/mL

Q: What about the IC50 (ug/ml), pseudovirus neutralization [6] of the same binder?
A: > 10 µg/mL

Q: What about the IC50 (ug/ml), pseudovirus neutralization [7] of the same binder?
A: > 10 µg/mL

Q: And the IC50 (ug/ml), pseudovirus neutralization [8]?
A: > 10 µg/mL

Q: And the IC50 (ug/ml), pseudovirus neutralization [9]?
A: > 10 µg/mL

Q: And the IC50 (ug/ml), pseudovirus neutralization [10]?
A: > 10 µg/mL

Q: And the IC50 (ug/ml), pseudovirus neutralization [11]?
A: 0.0915 µg/mL

Q: What about the IC50 (ug/ml), pseudovirus neutralization [12] of the same binder?
A: > 10 µg/mL

Q: And the IC50 (ug/ml), pseudovirus neutralization [13]?
A: 0.0065 µg/mL

Q: What about the IC50 (ug/ml), pseudovirus neutralization [14] of the same binder?
A: > 10 µg/mL

Q: And the % neutralized (viruses of the panel) [15]?
A: 18%

Q: And the median IC50 (ug/ml), pseudovirus neutralization [15]?
A: 0.05 µg/mL

Q: And the IC50 (ug/ml), pseudovirus neutralization [16]?
A: > 10 µg/mL

Q: What about the IC50 (ug/ml), pseudovirus neutralization [17] of the same binder?
A: 0.0135 µg/mL

Q: What about the IC50 (ug/ml), pseudovirus neutralization [18] of the same binder?
A: > 10 µg/mL

Q: And the IC50 (ug/ml), pseudovirus neutralization [19]?
A: > 10 µg/mL

Q: What about the IC50 (ug/ml), pseudovirus neutralization [20] of the same binder?
A: > 10 µg/mL

Q: What about the IC50 (ug/ml), pseudovirus neutralization [21] of the same binder?
A: > 10 µg/mL

Q: And the IC50 (ug/ml), pseudovirus neutralization [22]?
A: > 10 µg/mL

B2: PGT-135 (5343_B08; 5344_E16) (antibody, V domains shown)
VH: QLQMQESGPGLVKPSETLSLSCTVSGDSIRGGEWGDKDYHWGWVRHSAGKGLEWIGSIHWRGTTHYKESLRRRVSMSIDTSRNWFSLRLASVTAADTAVYFCARHRHHDVFMLVPIAGWFDVWGPGVQVTVSS
VL: EIVMTQSPDTLSVSPGETVTLSCRASQNINKNLAWYQYKPGQSPRLVIFETYSKIAAFPARFVASGSGTEFTLTINNMQSEDVAVYYCQQYEEWPRTFGQGTKVDIK
Q: How did the IC50 (ug/ml), pseudovirus neutralization [1] turn out when B2 was run?
A: > 10 µg/mL

Q: And the IC50 (ug/ml), pseudovirus neutralization [2]?
A: > 10 µg/mL

Q: What about the IC50 (ug/ml), pseudovirus neutralization [3] of the same binder?
A: 0.545 µg/mL

Q: And the IC50 (ug/ml), pseudovirus neutralization [4]?
A: 0.0433 µg/mL

Q: And the IC50 (ug/ml), pseudovirus neutralization [5]?
A: > 10 µg/mL

Q: And the IC50 (ug/ml), pseudovirus neutralization [6]?
A: 6.79 µg/mL

Q: And the IC50 (ug/ml), pseudovirus neutralization [7]?
A: > 10 µg/mL

Q: And the IC50 (ug/ml), pseudovirus neutralization [8]?
A: > 10 µg/mL

Q: And the IC50 (ug/ml), pseudovirus neutralization [9]?
A: 0.113 µg/mL

Q: And the IC50 (ug/ml), pseudovirus neutralization [10]?
A: > 10 µg/mL

Q: What about the IC50 (ug/ml), pseudovirus neutralization [11] of the same binder?
A: 0.0139 µg/mL

Q: What about the IC50 (ug/ml), pseudovirus neutralization [12] of the same binder?
A: > 10 µg/mL

Q: And the IC50 (ug/ml), pseudovirus neutralization [13]?
A: 0.0123 µg/mL

Q: What about the IC50 (ug/ml), pseudovirus neutralization [14] of the same binder?
A: > 10 µg/mL

Q: And the % neutralized (viruses of the panel) [15]?
A: 54%

Q: What about the median IC50 (ug/ml), pseudovirus neutralization [15] of the same binder?
A: 0.11 µg/mL

Q: And the IC50 (ug/ml), pseudovirus neutralization [16]?
A: > 10 µg/mL

Q: What about the IC50 (ug/ml), pseudovirus neutralization [17] of the same binder?
A: 0.0183 µg/mL

Q: And the IC50 (ug/ml), pseudovirus neutralization [18]?
A: > 10 µg/mL

Q: And the IC50 (ug/ml), pseudovirus neutralization [19]?
A: > 10 µg/mL

Q: What about the IC50 (ug/ml), pseudovirus neutralization [20] of the same binder?
A: > 10 µg/mL

Q: What about the IC50 (ug/ml), pseudovirus neutralization [21] of the same binder?
A: 2.16 µg/mL

Q: And the IC50 (ug/ml), pseudovirus neutralization [22]?
A: > 10 µg/mL

B3: 4869_K15 (antibody, V domains shown)
VH: QVHLQESGPGLVTPSETLSLTCTVSNGSVSGRFWSWIRQSPGRGLEWIGYFSDTDRSEYNPSLRSRLTLSVDRSKNQLSLRLKSVTAADSATYYCARAQQGKRIYGIVSFGEFFYYYYMDAWGKGTPVTVSS
VL: SLNPLSLAPGATAKIPCGERSRGSRAVQWYQQKPGQAPTLIIYNNQDRPAGVSERFSGNPDVAIGVTATLTISRVEVGDEADYYCHYWDSRSPISWIFGGGTQLTVL
Q: With B3 as the binder, how does the Primary Neutralization Index (B cell culture well 4869 K15) [23] read?
A: 3.9

Q: And the Primary Neutralization Index (B cell culture well 4869 K15) [24]?
A: 2.1

Q: And the Primary Neutralization Index (B cell culture well 4869 K15) [25]?
A: 1.5

Q: And the Primary Neutralization Index (B cell culture well 4869 K15) [26]?
A: 104
